Data on eight molecules can be found in paper PMC4769559 (BMC Veterinary Research, 2016).

Experiment [1] deals with truncate haemagglutinin-neuraminidase (HN) 49–577 aa of NDV La Sota fused to the yeast GAL4 DNA-BD (Newcastle disease virus, La Sota, UniProt O90340, strain). Put plainly: two-hybrid. The following applies: partners not purified.
Experiment [2] concerns the target cell derived HN protein (pCAGGS-HN transfected 293 T cells) (Newcastle disease virus, strain not …, UniProt O90340). Description: pull-down. The following applies: one partner purified.
Experiment [3] has as its target NDV HN glycoprotein in LaSota-infected DF-1 cells (Newcastle disease virus, La Sota, UniProt O90340, strain). Put plainly: immunostaining of cells or tissue. As to conditions: one partner purified.

B1: VHH5 fused to the Gal4 activation domain (pAD-VHH, pGADT7-Rec) (VHH)
VHH: QVQLVESGGGLVQPGGSLKLSCAASGFTFSTNAMSWFRPAPGKERKWVSAIDAGGGNTYYDDSMKGRFTISKDNAKNTLYLQLNSLKSEDTAMYYCAKDPATVPTNRGQGTLVTVSS
As to B1, in experiment [1], the binding result is reported as “binds”.

B2: VHH7 fused to the Gal4 activation domain (pAD-VHH, pGADT7-Rec) (VHH)
VHH: QVQLVESGGGLVQPGGSLRLSCAASGFAFSIYAMSWVRQAPGKGLEWVSAINSGGGSEYYADSVKGRFTISRDNAKNTLYLQLNSLKTEDTAMYYCAKSTSDCSYSDPWCYALADFGYWGQGTQVTVSS
Take B2: in experiment [1], the binding result is “binds”.

B3: VHH4 fused to the Gal4 activation domain (pAD-VHH, pGADT7-Rec) (VHH)
VHH: QVQLVESGGGSVQAGGPLRLSCAVSGYSYSSVCMAWFRQAPGKEREAVAGIYTGGGNKYYADSVKGRFTISQDNTKNTLYLQMNSLKPEDTAMYYCAADLTVAACVPGRPQLTEEYNIWGQGTLVTVSS
Turning to B3, the binding result in experiment [1] was “binds”.

B4: VHH2 fused to the Gal4 activation domain (pAD-VHH, pGADT7-Rec) (VHH)
VHH: QVQLVESGGGSVQAGGSLKLSCAPPAGYIFSSCAMGWYRQAPGKEHELVSSIAINGTTVYADFVKGRFTIFQDNTKPTLYLQMNNLKTEDTAVYYCAAECTFSDHPYWGQGTLVTVSS
In the case of B4, the binding result in experiment [1] was “binds”.

B5: VHH3 fused to the Gal4 activation domain (pAD-VHH, pGADT7-Rec) (VHH)
VHH: EVQLVESGGGSVQAGGSLRLSCTASGYTRCMGWFRQAPGKEREGVAIVVTGSPYYTDSVKDRFTISLDNAKNTVYLQMNSLKPEDTATYYCAADRSILGCRLFRLYEANYRGQGTLVTVSS
Consider B5, for which, in experiment [1], the binding result was “binds”.

B6: VHH1 fused to the Gal4 activation domain (pAD-VHH, pGADT7-Rec) (VHH)
VHH: QVQLVESGGGSVQAGGSLTLSCAASGATDSSSCMGWFRQAPGKEREGVANIDSDGNTNYAESVMGRFTISQDNAKNTLYLQMNTLKPEDTAMYRCAADPGGSWCVFLLARENALDAWGQGTLVTVSS
Consider B6, for which the binding result in experiment [1] is “binds”.

B7: 6 × His-SUMO-VHH6 fusion protein (VHH)
VHH: QVQLVESGGGSVQAGGSLRLSCTASGFTFDDSDMVWYRQAPGNECEVVSYITSDGTTYHADSVKGRFTISQDNAKSTVYLQMNSLKPEDTAVYYCAADLVLESPSCEWSQGTLVTVSS
As for B7, the binding result in experiment [2] and in experiment [3] was “binds” throughout.

B8: VHH6 fused to the Gal4 activation domain (pAD-VHH, pGADT7-Rec) (VHH)
VHH: QVQLVESGGGSVQAGGSLRLSCTASGFTFDDSDMVWYRQAPGNECEVVSYITSDGTTYHADSVKGRFTISQDNAKSTVYLQMNSLKPEDTAVYYCAADLVLESPSCEWSQGTLVTVSS
For B8, the binding result in experiment [1] is given as “binds”.
